We go through 3 molecules from article PMC4632850 (Protein Science : A Publication of the Protein Society, 2015).

The target in data set [1] is T1, phosphorylated neutral trehalase Nth1 (pNth1) (Saccharomyces cerevisiae, UniProt P32356 1-751, phosphorylated (sites not given)).
T1 sequence: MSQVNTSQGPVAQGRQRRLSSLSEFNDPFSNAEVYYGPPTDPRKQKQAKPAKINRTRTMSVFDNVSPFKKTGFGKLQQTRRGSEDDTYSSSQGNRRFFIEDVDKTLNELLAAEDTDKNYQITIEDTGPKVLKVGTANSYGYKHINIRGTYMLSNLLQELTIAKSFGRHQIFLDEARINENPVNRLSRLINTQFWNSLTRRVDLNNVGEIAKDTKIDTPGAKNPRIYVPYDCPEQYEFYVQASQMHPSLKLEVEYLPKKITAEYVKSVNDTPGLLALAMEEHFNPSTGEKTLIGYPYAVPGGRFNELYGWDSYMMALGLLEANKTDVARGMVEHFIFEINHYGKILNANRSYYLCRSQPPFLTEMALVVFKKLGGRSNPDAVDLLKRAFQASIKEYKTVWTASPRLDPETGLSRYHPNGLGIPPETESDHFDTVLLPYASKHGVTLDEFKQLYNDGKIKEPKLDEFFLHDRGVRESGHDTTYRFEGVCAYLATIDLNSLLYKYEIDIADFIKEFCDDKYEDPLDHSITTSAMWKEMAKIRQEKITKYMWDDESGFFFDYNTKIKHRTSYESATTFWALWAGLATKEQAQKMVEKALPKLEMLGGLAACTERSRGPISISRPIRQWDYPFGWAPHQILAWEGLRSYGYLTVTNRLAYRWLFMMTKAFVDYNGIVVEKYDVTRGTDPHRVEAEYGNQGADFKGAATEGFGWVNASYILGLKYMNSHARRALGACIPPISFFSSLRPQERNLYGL
Put plainly: SAXS.

The data set “SEC” concerns the molecule itself. Put plainly: SEC.
Data set [2] deals with the molecule itself.

B1: yeast 14-3-3 protein Bmh1 (natural protein)
chain: MSTSREDSVYLAKLAEQAERYEEMVENMKTVASSGQELSVEERNLLSVAYKNVIGARRASWRIVSSIEQKEESKEKSEHQVELICSYRSKIETELTKISDDILSVLDSHLIPSATTGESKVFYYKMKGDYHRYLAEFSSGDAREKATNASLEAYKTASEIATTELPPTHPIRLGLALNFSVFYYEIQNSPDKACHLAKQAFDDAIAELDTLSEESYKDSTLIMQLLRDNLTLWTSDMSESGQAEDQQQQQQHQQQQPPAAAEGEAPK
B1: the binding result in data set [1] is listed as “binds”.

B2: human HtrA3 lacking the N-terminal domain (enzyme)
chain: GLHQLSSPRYKFNFIADVVEKIAPAVVHIELFLRHPLFGRNVPLSSGSGFIMSEAGLIITNAHVVSSNSAAPGRQQLKVQLQNGDSYEATIKDIDKKSDIATIKIHPKKKLPVLLLGHSADLRPGEFVVAIGSPFALQNTVTTGIVSTAQREGRELGLRDSDMDYIQTDAIINYGNSGGPLVNLDGEVIGINTLKVTAGISFAIPSDRITRFLTEFQDKQIKDWKKRFIGIRMRTITPSLVDELKASNPDFPEVSSGIYVQEVAPNSPSQRGGIQDGDIIVKVNGRPLVDSSELQEAVLTESPLLLEVRRGNDDLLFSIAPEVVM
Regarding B2, the stoichiometry N (usually a count of units in the complex or per binding partner) in “SEC” is 3.

B3: DNA-binding domain of human FoxP1 (domain or fragment)
chain: AEVRPPFTYASLIRQAILESPEKQLTLNEIYNWFTRMFAYFRRNAATWKNAVRHNLSLHKCFVRVENVKGAVWTVDEVEFQKRRPQKISGNPSL
Regarding B3, in data set [2], the “dH (dimer dissociation, van't Hoff)” value turned out to be 23.1 kcal•mol‐1.
